# Source: patent US20240287479A1, “GLYCOSYLTRANSFERASE MUTANT, AND METHOD FOR CATALYTIC SYNTHESIS OF REBAUDIOSIDE M USING GLYCOSYLTRANSFERASE MUTANT” (XINGHUA GL STEVIA CO., LTD, priority 2021, published 2024)
# Positions count from the first letter of the chain named. Numbers in names are those of the source.
# B1: S195Q: UGT76G1 (SEQ ID NO: 1) mutant, position 195 serine to glutamine (protein)
# chain: MENKTETTVRRRRRIILFPVPFQGHINPILQLANVLYSKGFSITIFHTNFNKPKTSNYPHFTFRFILDNDPQDERISNLPTHGPLAGMRIPIINEHGADELRRELELLMLASEEDEEVSCLITDALWYFAQSVADSLNLRRLVLMTSSLFNFHAHVSLPQFDELGYLDPDDKTRLEEQASGFPMLKVKDIKSAYQNWQILKEILGKMIKQTKASSGVIWNSFKELEESELETVIREIPAPSFLIPLPKHLTASSSSLLDHDRTVFQWLDQQPPSSVLYVSFGSTSEVDEKDFLEIARGLVDSKQSFLWVVRPGFVKGSTWVEPLPDGFLGERGRIVKWVPQQEVLAHGAIGAFWTHSGWNSTLESVCEGVPMIFSDFGLDQPLNARYMSDVLKVGVYLENGWERGEIANAIRRVMVDEEGEYIRQNARVLKQKADVSLMKGGSSYESLESLVSYISSL
# modifications: The sequence is synthetized.
# B2: UGT76G1: wild-type Stevia rebaudiana-derived glycosyltransferase, amino acid sequence SEQ ID NO: 1 (protein)
# chain: B1 chain with Q195S
# modifications: The sequence is synthetized.
# B3: S147D-StSUS1: recombinase (crude enzyme) from E. coli BL21 (DE3) co-expressing mutant S147D and sucrose synthase StSUS1 (protein)
# chain: B1 chain with S147D, Q195S
# B4: G378P-StSUS1: recombinase (crude enzyme) from E. coli BL21 (DE3) co-expressing mutant G378P and sucrose synthase StSUS1 (protein)
# chain: B1 chain with Q195S, G378P
# B5: L200Y: UGT76G1 (SEQ ID NO: 1) mutant, position 200 leucine to tyrosine (protein)
# chain: B1 chain with Q195S, L200Y
# modifications: The sequence is synthetized.
# B6: L200Y-StSUS1: recombinase (crude enzyme) from E. coli BL21 (DE3) co-expressing mutant L200Y and sucrose synthase StSUS1 (protein)
# chain: B1 chain with Q195S, L200Y
# B7: T284S-StSUS1: recombinase (crude enzyme) from E. coli BL21 (DE3) co-expressing mutant T284S and sucrose synthase StSUS1 (protein)
# chain: B1 chain with Q195S, T284S
# B8: S147N-StSUS1: recombinase (crude enzyme) from E. coli BL21 (DE3) co-expressing mutant S147N and sucrose synthase StSUS1 (protein)
# chain: B1 chain with S147N, Q195S
# B9: S285W-StSUS1: recombinase (crude enzyme) from E. coli BL21 (DE3) co-expressing mutant S285W and sucrose synthase StSUS1 (protein)
# chain: B1 chain with Q195S, S285W
# B10: S195Q-StSUS1: recombinase (crude enzyme) from E. coli BL21 (DE3) co-expressing mutant S195Q and sucrose synthase StSUS1 (protein)
# chain: B1 chain
# Tests used:
# Format in all cases: biochemical
# [1] = Crude enzyme activity of glycosyltransferase mutants and WT (HPLC); details: 1.2 mM rebaudioside E, 2 mM UDPG, crude enzyme 1 mg, 37° C., 30 min
# Method: (§1) Activities of glycosyltransferase mutants and a WT glycosyltransferase were determined. A 3 mL catalytic reaction system was prepared from the following components: 1.2 mM rebaudioside E, 2 mM UDPG, 3 mM MgCl2, crude enzyme: 1 mg, and 100 mM potassium phosphate buffer with a pH of 7.2: the balance. A catalytic reaction was conducted on a shaker at 37° C. and 200 rpm, where a sample was collected at 0 min and 30 min. Sample treatment: 500 μL of a sample solution was pipetted and added to an EP tube; the EP tube was placed in boiling water at 95° C. for 15 min to stop a reaction, and then centrifuged in a centrifuge at 12,000 rpm for 1 min; and a resulting supernatant was collected and added to a new EP tube, filtered through an organic filter membrane (0.45 μm), and stored in a liquid-phase sample bottle for high-performance liquid chromatography (HPLC) analysis. Definition of an enzyme activity (U): an enzyme amount required for producing 1 μmol of a product within 1 min is defined as 1 enzyme activity unit.
# The four mutant strains S195Q-StSUS1, L200Y-StSUS1, T284S-StSUS1, and S285W-StSUS1 screened out in the above conversion experiment were used to produce glycosyltransferase mutants, and the glycosyltransferase mutants and the WT glycosyltransferase UGT76G1 were tested for activities. […] Thus, the optimal mutant strain S195Q-StSUS1 was screened out.
# [2] = Kinetic parameters of purified glycosyltransferases for rebaudioside D; details: for Kcat / Km: substrate RebD, purified enzyme
# Method: as §1
# (§2) A final concentration of rebaudioside E was set to 10 μM to 2,000 μM or a final concentration of rebaudioside D was set to 50 μM to 2,000 μM. Rebaudioside E or rebaudioside D solutions of different concentrations each were mixed with an appropriate amount of each of the purified WT UGT76G1 and the mutant S195Q, and an enzyme activity was determined according to the enzyme activity assay method described above. A Michaelis Menten equation was used to calculate Kn, Vmax, Keat, and Keat/Km of the purified WT glycosyltransferase and the glycosyltransferase mutant.
# [3] = Kinetic parameters of purified glycosyltransferases for rebaudioside E; details: for Kcat / Km: substrate RebE, purified enzyme
# Method: as §1, §2
# [4] = Preliminary screening: conversion of RebE by crude recombinases; details: 40° C., 12 h; for catalytic activity / conversion rate for RebE (in words): RebE 10 g/L
# Method: (§3) Recombinases were prepared with the mutant strains G87D-StSUS1, S147D-StSUS1, S147N-StSUS1, S195Q-StSUS1, L200Y-StSUS1, T284S-StSUS1, S285W-StSUS1, and G378P-StSUS1 and the WT strain UGT76G1-StSUS1, and then used to convert RebE or RebD to preliminarily screen out relatively-preferred mutants.
# The conversion of RebE adopted a 3 mL reaction system including. RebE as a substrate: 10 g/L, sucrose: 30 g/L, crude enzyme: 5 mg/mL, and 100 mM potassium phosphate buffer (pH 7.2): the balance. A RebE conversion reaction was conducted on a shaker at 40° C. and 200 rpm for 12 h, and corresponding conversion rates were shown in FIG. 1.
# [5] = Preliminary screening: conversion of RebD by crude recombinases; details: 40° C.; for RebD substrate conversion rate relative to UGT76G1-StSUS1: 20 h
# Method: as §3
# The conversion of RebD adopted a 3 mL reaction system including: RebD as a substrate: 1 g/L, sucrose: 3 g/L, crude enzyme: 5 mg/mL, and 100 mM potassium phosphate buffer (pH 7.2): the balance. A RebD conversion reaction was conducted on a shaker at 40° C. and 200 rpm for 6 h and 20 h, and corresponding conversion rates were shown in FIG. 2.
molecule,measurement,setting,value
B1,enzyme activity (in words),[1],highest enzyme activity
same,enzyme activity relative to WT glycosyltransferase UGT76G1,[1],1.3 times
same,Kcat,[2],0.25 ± 0.004 s⁻¹
same,Km,[2],214 ± 14.5 µM
same,improvement of affinity compared with the WT glycosyltransferase,[2]; substrate rebaudioside D,2.2 times
same,improvement of catalytic efficiency compared with the WT glycosyltransferase,[2]; substrate rebaudioside D,2.8 times
same,Kcat,[3],1.48 ± 0.01 s⁻¹
same,Km,[3],56.3 ± 2.02 µM
same,improvement of catalytic efficiency compared with the WT glycosyltransferase,[3]; substrate rebaudioside E,2.2 times
B2,Kcat,[2],0.20 ± 0.005 s⁻¹
same,Km,[2],478 ± 33 µM
same,Kcat,[3],2.00 ± 0.03 s⁻¹
same,Km,[3],170 ± 12.6 µM
B3,catalytic activity / conversion rate for RebE (in words),[4],low conversion rate
B4,catalytic activity / conversion rate for RebE (in words),[4],basically no catalytic activity
B5,enzyme activity (in words),[1],low enzyme activity
B6,catalytic effect on RebD (in words),[5]; 6 h,optimal catalytic effect
same,RebD substrate conversion rate relative to UGT76G1-StSUS1,[5],1.3 times
same,RebE conversion rate relative to UGT76G1-StSUS1,[4],1.1 times
B7,RebE conversion rate relative to UGT76G1-StSUS1,[4],1.1 times
B8,catalytic activity / conversion rate for RebE (in words),[4],basically no catalytic activity
B9,RebE conversion rate relative to UGT76G1-StSUS1,[4],1.1 times
B10,RebD substrate conversion rate relative to UGT76G1-StSUS1,[5],1.3 times
same,RebE conversion rate relative to UGT76G1-StSUS1,[4],1.1 times
